Residue numbers refer to the chain shown, from its start. Numbers in names are those of the source.
Legend:
full-length human GPC3 [1] = target: T1, full-length human GPC3 (human, UniProt P51654 25-554); assay: flow cytometry, antibody at 5 µg/mL, HepG2 cells
T1 construct: On CHO (DXB11) or SK-HEP-1 (SK-03) transfectants; also used here for the GPC3 on the hepatoma lines HepG2 and HuH-7; also called human glypican 3

full-length human GPC3 [2] = target: T1, full-length human GPC3; assay: flow cytometry, antibody at 5 µg/mL, HuH-7 cells
[3] = target: T2, soluble form of GPC3 core protein (human, UniProt P51654 25-563); assay: ELISA on plate coated with soluble GPC3 core protein
T2 construct: not shown: His tag added to the C-terminus

full-length human GPC3 [4] = target: T1, full-length human GPC3; assay: BIACORE; the form of GPC3 used is not given
[5] = target: T3, C-terminal fragment of 30 kDa of the soluble form of GPC3 core protein (human, UniProt P51654 375-563); assay: Western blotting of soluble GPC3 core protein after reducing SDS-PAGE
T3 construct: the shorter limit is written; also called C-terminal side; band of about 30 kDa; not shown: His tag at the C-terminus
T3 chain: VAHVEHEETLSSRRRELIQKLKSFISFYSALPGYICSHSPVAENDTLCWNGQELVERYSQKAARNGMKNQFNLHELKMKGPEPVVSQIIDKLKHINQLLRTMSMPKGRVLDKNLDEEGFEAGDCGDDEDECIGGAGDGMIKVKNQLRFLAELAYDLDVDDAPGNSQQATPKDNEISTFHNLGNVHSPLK

[6] = target: T2, soluble form of GPC3 core protein; assay: competitive ELISA on coated soluble GPC3 core protein; labelled competitor biotin-M1E7;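 note: Biotin-labelled antibody added as 10 µL at 10 µg/mL for 1 h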
[7] = target: T2, soluble form of GPC3 core protein; assay: competitive ELISA on coated soluble GPC3 core protein; labelled competitor biotin-M5B9;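 note: Biotin-labelled antibody added as 10 µL at 10 µg/mL for 1 h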
[8] = target: T2, soluble form of GPC3 core protein; assay: competitive ELISA on coated soluble GPC3 core protein; labelled competitor biotin-M6B1;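 note: Biotin-labelled antibody added as 10 µL at 10 µg/mL for 1 h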
[9] = target: T2, soluble form of GPC3 core protein; assay: competitive ELISA on coated soluble GPC3 core protein; labelled competitor biotin-L9G11;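 note: Biotin-labelled antibody added as 10 µL at 10 µg/mL for 1 h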
[10] = target: T2, soluble form of GPC3 core protein; assay: competitive ELISA on coated soluble GPC3 core protein; labelled competitor biotin-M10D2;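 note: Biotin-labelled antibody added as 10 µL at 10 µg/mL for 1 h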
[11] = target: T2, soluble form of GPC3 core protein; assay: competitive ELISA on coated soluble GPC3 core protein; labelled competitor biotin-M11F1;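 note: Biotin-labelled antibody added as 10 µL at 10 µg/mL for 1 h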
[12] = target: T2, soluble form of GPC3 core protein; assay: competitive ELISA on coated soluble GPC3 core protein; labelled competitor biotin-M18D4;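 note: Biotin-labelled antibody added as 10 µL at 10 µg/mL for 1 h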
[13] = target: T2, soluble form of GPC3 core protein; assay: competitive ELISA on coated soluble GPC3 core protein; labelled competitor biotin-M3C11;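 note: Biotin-labelled antibody added as 10 µL at 10 µg/mL for 1 h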
full-length human GPC3 [14] = target: T1, full-length human GPC3; assay: flow cytometry, antibody at 5 µg/mL, CHO cells expressing human GPC3 (column CHO/human GPC3)
[15] = target: T4, GC-3 (GST fusion of GPC3 Ala524 to Lys563) (human, UniProt P51654 524-563); assay: Western blotting of GST-fusion proteins, reducing SDS-PAGE
T4 construct: not shown: GST as encoded by pGEX-4T-3 (Amersham), N-terminal to the GPC3 peptide
T4 chain: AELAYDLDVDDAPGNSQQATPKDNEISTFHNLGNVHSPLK

[16] = target: T5, secreted form of GPC3 in the culture supernatant of HepG2 (human, UniProt P51654 25-358, limits assumed); assay: immunoprecipitation of the culture supernatant of HepG2, detection of secreted GPC3
T5 construct: also called secretory GPC3; secreted form of GPC3 of 40 kDa

[17] = target: T6, GC-1 (GST fusion of GPC3 Ser495 to Lys563) (human, UniProt P51654 495-563); assay: Western blotting of GST-fusion proteins, reducing SDS-PAGE
T6 construct: Made in E. coli DH5alpha; not shown: GST as encoded by pGEX-4T-3 (Amersham), N-terminal to the GPC3 peptide
T6 sequence: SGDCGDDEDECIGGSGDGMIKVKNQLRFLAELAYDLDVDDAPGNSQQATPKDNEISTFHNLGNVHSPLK

[18] = target: T7, GC-2 (GST fusion of GPC3 Gly510 to Lys563) (human, UniProt P51654 510-563); assay: as above
T7 construct: not shown: GST as encoded by pGEX-4T-3 (Amersham), N-terminal to the GPC3 peptide
T7 sequence: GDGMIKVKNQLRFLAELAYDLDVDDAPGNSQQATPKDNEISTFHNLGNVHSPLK

[19] = target: T2, soluble form of GPC3 core protein; assay: ELISA on plate coated with soluble GPC3 core protein; antibody from COS7 culture supernatant
[20] = target: T2, soluble form of GPC3 core protein; assay: ELISA on plate coated with soluble GPC3 core protein; antibody from COS7 culture supernatant [lower right panel]

T1 sequence (P51654 25-554 limits assumed): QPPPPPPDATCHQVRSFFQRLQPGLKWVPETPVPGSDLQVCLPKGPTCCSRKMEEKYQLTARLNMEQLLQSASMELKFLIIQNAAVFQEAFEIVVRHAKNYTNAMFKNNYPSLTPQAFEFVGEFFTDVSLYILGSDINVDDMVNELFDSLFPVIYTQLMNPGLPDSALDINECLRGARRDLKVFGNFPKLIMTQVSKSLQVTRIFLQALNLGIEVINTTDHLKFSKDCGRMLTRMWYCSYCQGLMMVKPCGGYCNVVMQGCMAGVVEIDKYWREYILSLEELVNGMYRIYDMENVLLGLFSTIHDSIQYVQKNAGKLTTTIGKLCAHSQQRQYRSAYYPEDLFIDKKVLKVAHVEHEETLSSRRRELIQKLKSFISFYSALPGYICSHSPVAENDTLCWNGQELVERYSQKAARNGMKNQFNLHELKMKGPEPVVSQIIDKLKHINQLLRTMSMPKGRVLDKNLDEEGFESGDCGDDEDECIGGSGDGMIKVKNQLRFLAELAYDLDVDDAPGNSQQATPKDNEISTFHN
T5 sequence (P51654 25-358 limits assumed): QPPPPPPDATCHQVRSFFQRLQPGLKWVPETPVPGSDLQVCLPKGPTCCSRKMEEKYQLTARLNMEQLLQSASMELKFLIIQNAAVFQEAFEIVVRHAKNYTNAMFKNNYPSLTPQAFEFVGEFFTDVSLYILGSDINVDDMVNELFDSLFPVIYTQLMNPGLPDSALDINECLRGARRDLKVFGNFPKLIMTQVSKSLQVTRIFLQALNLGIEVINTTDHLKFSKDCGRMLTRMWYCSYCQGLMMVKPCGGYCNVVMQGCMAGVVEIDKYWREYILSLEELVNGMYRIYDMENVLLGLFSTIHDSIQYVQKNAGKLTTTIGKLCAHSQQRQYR

B1: L9G11 (antibody, V domains shown)
VH: QVQLQQPGAELVKPGASVKLSCKASGYTFTSYWMHWVKQRPGQGLEWIGTIDPSDSETHYNLQFKDTATLTVDKSSSTAYMQLSSLTSEDSAVYYCIRGAFYSSYSYWAWFAYWGQGTLVTVSA
VL: DIVLTQSPTSLAVSLGQSVTISCRASESVEYYGTSLMQWYQQKPGQPPKLLIYGASNVESGVPARFSGSGSGTDFSLNIHPVEEDDIAMYFCQQSRKVPYTFGSGTKLEIK
notes: Mouse monoclonal from hybridoma
FACS X-mode value of the histogram (full-length human GPC3 [1]): 26
FACS X-mode value of the histogram (full-length human GPC3 [2]): 4
EC50 [3]: 0.62 nM
Kd (full-length human GPC3 [4]): 10.7 nM
koff (full-length human GPC3 [4]): 0.0014 s⁻¹
kon (full-length human GPC3 [4]): 130000 M⁻¹ s⁻¹
binding result [5]: no binding
Inhibition of the binding of indicated biotin-Mab to sGPC3 core (%) [6]: -4.8%
Inhibition of the binding of indicated biotin-Mab to sGPC3 core (%) [7]: 6.4%
Inhibition of the binding of indicated biotin-Mab to sGPC3 core (%) [8]: 10.1%
Inhibition of the binding of indicated biotin-Mab to sGPC3 core (%) [9]: 92.2%
Inhibition of the binding of indicated biotin-Mab to sGPC3 core (%) [10]: 1.2%
Inhibition of the binding of indicated biotin-Mab to sGPC3 core (%) [11]: 6%
Inhibition of the binding of indicated biotin-Mab to sGPC3 core (%) [12]: 15.7%
Inhibition of the binding of indicated biotin-Mab to sGPC3 core (%) [13]: 2.1%
FACS X-mode value of the histogram (full-length human GPC3 [14]): 29

B2: M11F1 (antibody, V domains shown)
VH: QVTLKESGPGILQPSQTLSLTCSFSGFSLSIYGMGVGWIRQPSGKGLEWLANIWWNDDKYYNSALKSRLTISKDTSNNQVFLKISSVDTADTATYYCAQIGYFYFDYWGQGTTLTVSS
VL: DVVMTQTPLSLPVSLGDQASISCRSSQSLVHSNGNTYLHWYLQKPGQSPKLLIYKVSNRFSGVPDRFSGSGSGTDFTLKISRVEAEDLGVYFCSQSTHVPWTFGGGTKLEIK
notes: as for B1
binding result [15]: binds
FACS X-mode value of the histogram (full-length human GPC3 [1]): 4
FACS X-mode value of the histogram (full-length human GPC3 [2]): 2
EC50 [3]: 2.17 nM
Kd (full-length human GPC3 [4]): 0.2 nM
koff (full-length human GPC3 [4]): 3.5e-05 s⁻¹
kon (full-length human GPC3 [4]): 140000 M⁻¹ s⁻¹
binding result [16]: no binding
Inhibition of the binding of indicated biotin-Mab to sGPC3 core (%) [6]: 3.9%
Inhibition of the binding of indicated biotin-Mab to sGPC3 core (%) [7]: 5.4%
Inhibition of the binding of indicated biotin-Mab to sGPC3 core (%) [8]: 5.6%
Inhibition of the binding of indicated biotin-Mab to sGPC3 core (%) [9]: 20.9%
Inhibition of the binding of indicated biotin-Mab to sGPC3 core (%) [10]: 24.6%
Inhibition of the binding of indicated biotin-Mab to sGPC3 core (%) [11]: 81.8%
Inhibition of the binding of indicated biotin-Mab to sGPC3 core (%) [12]: -1.5%
Inhibition of the binding of indicated biotin-Mab to sGPC3 core (%) [13]: 2%
FACS X-mode value of the histogram (full-length human GPC3 [14]): 9

B3: M3B8 (antibody, V domains shown)
VH: QVTLKESGPGILQPSQTLSLTCSFSGFSLSTYGMGVGWIRQPSGMGLEWLANIWWYDAKYYNSDLKSRLTISKDTSNNQVFLKISSVDTSDTATYYCAQMGLAWFAYWGQGTLVTVSA
VL: DIKMTQSPSSMYASLGERVTITCKASQDINNYLSWFQQKPGKSPKTLIYRANRLVDGVPSRFSGSGSGQDYSLTISSLEYEDMGINYCLQCDEFPPWTFGGGTKLEIK
notes: as for B1
binding result [17]: binds
binding result [18]: binds
binding result [15]: binds

B4: M1E7 (antibody, human IgG1, kappa, V domains shown)
VH: EVQLQQSGPELVKPGASVKISCKASGYSFTGYYMHWVKQSPEKSLEWIGEINPSTGGTTYNQKFKAKATLTVDKSSSTAYMQLKSLTSEDSAVYYCARRGGLTGTSFFAYWGQGTLVTVSA
VL: DVVMTQTPLSLSVTIGQPASISCKSSQSLLYSNGKTYLNWLQQRPGQAPKHLMYQVSKLDPGIPDRFSGSGSETDFTLKISRVEAEDLGVYYCLQSTYYPLTFGAGTKLELKR
notes: Mouse monoclonal from hybridoma; also called M1E07
binding result [15]: no binding
FACS X-mode value of the histogram (full-length human GPC3 [1]): 16
FACS X-mode value of the histogram (full-length human GPC3 [2]): 5
EC50 [3]: 0.96 nM
Kd (full-length human GPC3 [4]): 2.8 nM
koff (full-length human GPC3 [4]): 0.000427 s⁻¹
kon (full-length human GPC3 [4]): 150000 M⁻¹ s⁻¹
binding result [16]: no binding
Inhibition of the binding of indicated biotin-Mab to sGPC3 core (%) [6]: 83.9%
Inhibition of the binding of indicated biotin-Mab to sGPC3 core (%) [7]: 6.4%
Inhibition of the binding of indicated biotin-Mab to sGPC3 core (%) [8]: 7.7%
Inhibition of the binding of indicated biotin-Mab to sGPC3 core (%) [9]: 38%
Inhibition of the binding of indicated biotin-Mab to sGPC3 core (%) [10]: 14.8%
Inhibition of the binding of indicated biotin-Mab to sGPC3 core (%) [11]: 14.3%
Inhibition of the binding of indicated biotin-Mab to sGPC3 core (%) [12]: 9%
Inhibition of the binding of indicated biotin-Mab to sGPC3 core (%) [13]: 26%
FACS X-mode value of the histogram (full-length human GPC3 [14]): 28

B5: humanized GC33 H chain ver.k / L chain ver.a (antibody, V domains shown)
VH: QVQLVQSGAEVKKPGASVKVSCKASGYTFTDYEMHWVRQAPGQGLEWMGALDPKTGDTAYSQKFKGRVTLTADKSTSTAYMELSSLTSEDTAVYYCTRFYSYTYWGQGTLVTVSS
VL: DVVMTQSPLSLPVTPGEPASISCRSSQSLVHSNGNTYLHWYLQKPGQSPQLLIYKVSNRFSGVPDRFSGSGSGTDFTLKISRVEAEDVGVYYCSQNTHVPPTFGQGTKLEIK
notes: Parent of the N33 and G34 L chain variants
EC50 (read off the curve) [19]: ~20 ng/mL

B6: modified humanized GC33 (H chain ver.k, L chain G34R) (antibody, human IgG1, V domains shown)
VH: B5 VH
VL: B5 VL with G34R
notes: COS7 supernatant; human IgG1/kappa
EC50 (read off the curve) [20]: ~20 ng/mL

Reference: patent US20100248359A1 (Chugai, published 2010)
